The values that follow come from patent publication US20240352121A1, “LAIR-1 AGONISTIC ANTIBODIES AND METHODS OF USE THEREOF” (NEXTCURE, INC., priority 2023, published 2024).

Some results are limits rather than exact numbers.

One may read the Tmax as the time at which the peak concentration occurs.

In one data set the test system is human LAIR-1. The data set is described as follows: UT-140 LAIR-1 reporter cell activation (agonism). The class given is cell-based. Conditions: upon engagement and crosslinking. Here is the method:
For cell binding assays, 5e4 UT-140 cells or mouse LAIR-1-transfected 293T cells per well were plated in 200 μL PBS in a 96-well round bottom plate, centrifuged for 4 minutes at 500×g for a single wash, and blocked for 10 minutes on ice with flow cytometry buffer (PBS+2% FBS+0.1 mM EDTA) containing 1:50 dilution of TruStain™ Fc block (Biolegend, San Diego, CA). Cells were subsequently stained for 30 min on ice with titrated concentrations of soluble AF647-labeled LAIR-1 mAb or AF647-labeled isotype control. Cells were then washed 3 times as previously described and binding was measured by flow cytometry using an Attune NXT flow cytometer. For reporter cell assays, flat-bottom 96-well TC plates were coated with 10 μg/mL per well of the indicated antibody in PBS or 2 μg/mL of ligand in 0.01N HCl overnight at 4° C. Wells were washed once with 200 μL sterile PBS. 5e4-to-1e5 cells per well were plated in 100 μL RPMIc containing titrated concentrations of LAIR-1 mAb or isotype control, then incubated overnight at 37° C. The next day, cells were transferred to a 96-well round-bottom plate, centrifuged for 4 minutes at 500×g, and resuspended in 200 μL of flow cytometry buffer. Cells were then centrifuged and resuspended for a total of 3 washes. GFP expression was measured by flow cytometry using an Attune NXT Flow Cytometer.

The nature of data set [1]: Pharmacokinetic study in balb/c mice. Conditions: 10 mg/kg intraperitoneal, blood serum. The format is in vivo. Here is the method:
Balb/c mice were intraperitoneally injected with 10 mg/kg h11B3. Mice were subsequently bled by cheek-vein puncture at the indicated time points. Blood serum was isolated by centrifugation at 2500 RCF in serum-collection tubes. Blood serum was tested for circulating h11B3 by Universal PK assay. Briefly, h11B3 in mouse serum was captured using a biotin-labeled anti-human IgG inside a nanoliter column of a Gyrolab CD. Alexa Fluor labeled anti-human IgG was used for detection. The quantitative dynamic range was (500-100,000) ng/ml (LLOQ-ULOQ). The standard curve and controls were prepared in pooled Balb/C serum (Biochemed). Standard curve, controls, and samples were diluted 1:10-fold (MRD) in buffer. Samples above the upper limit of quantitation (100,000 ng/mL) were brought within range by diluting them in Rexiip buffer. The laser-induced fluorescence detection technique detected the amount of analyte present in the sample. The standard curve signals were used to interpolate unknown sample concentrations. All samples were analyzed in duplicates and assigned an acceptance criteria (±20% CV and Bias). Gyrolab Evaluator software was used to perform 4PL with Y weighing non-linear regression to interpolate unknown sample concentrations.

Data set [2] concerns AML patient LSCs engrafted in mice. Kind of data set: AML patient-derived xenograft (PDX) model. The format is in vivo, NSG-SGM3 mice. Conditions: 5 mg/kg i.p. weekly, 4 doses; at any time point. Here is the method:
(§1) Newborn (3-5 day from birth) NSG-SGM3 pups were sub-lethally (200 cGy) irradiated. 12 hours post-irradiation, mice were intra-hepatically transplanted with 0.2e6 AML bone-marrow cells or normal CD34 HSCs from cryopreserved stocks. 6 weeks post-transplant, blood was collected to assess engraftment of progenitor cells via flow cytometry, staining for human CD45, human CD33, and human CD3. Once engraftment of human cells was confirmed, 5 mg/kg of anti-human LAIR-1 mAb or isotype control was intraperitoneally injected weekly for a total of 4 doses. At the indicated timepoints post-treatment, blood was collected to assess the proliferation of AML cells as a measure of LAIR-1 mAb anti-leukemic activity as compared to isotype control. For standard-of-care combination studies, PDX mice were treated with 20 mg/kg venetoclax 5 days on and 2 days off for 5 weeks, and X 1.5 mg/kf-tiw azacytidine upfront one week only. LAIR-1 mAb was treated i.p. once per week for 5 weeks. Blood was harvested as described above to measure leukemic growth and spleens were harvested at endpoint and weighed for assessment of splenomegaly. For secondary transplant studies, mice were engrafted as above. […] Leukemia progression in recipient mice was measured by flow cytometry by quantifying the percent of human CD33^+ human CD45^+ cells in peripheral blood at weeks 4, 6, and 10 weeks post-transplant.
(Xenograft models place foreign cells or tissue in a host animal.)

The test system of data set [3] is LSCs within the bone-marrow of PDX donor animals. The data set is described as follows: PDX secondary transplant model. The format is in vivo, NSG-SGM3 mice. Conditions: bone-marrow from PDX donors treated for 4 weeks; no further treatment. Here is the method:
as §1

For a further data set, the system named is healthy CD34+ cells. The data set is described as follows: NC525 clustering of LAIR-1 in healthy CD34+ cells. The format is cell-based, human.
In data set [4] the test system is MV4-11-LAIR-1 Overexpressing cells. Kind of data set: In vitro culture of MV4-11-LAIR-1 overexpressing cells with or without anti-IgG crosslinking. The class given is cell-based, human. Here is the method: FIGS. 4A-4O show the collagen matrix is vital to LAIR-1 induced AML cell death. (FIGS. 4A-C). Flow cytometry quantification of primary live, dead, or apoptotic total blood leukocytes after ex vivo treatment with 10 μg/mL IgG isotype control (gray) or LAIR-1 mAb (red) in the presence (FIG. 4A) or absence (FIG. 4B) of exogenous collagen, or (FIG. 4C), CD451^Lo SSC^Lo blast cells in the presence of isotype control or LAIR-1 mAb. N=3 technical replicates. […] Each dot represents an individual donor. Red shading highlights surface expression >20000 arbitrary units. Blue shading highlights expression <20000 units. Line represents simple linear regression. […] N=4-7 donors. […] Mean pixel density from Western blotting normalized to isotype control condition and graphed relative to total SHP-1. N=3 technical replicates. FIGS. 4G and 4H show mean pixel density from phospho-array of AML patient PBMCs treated ex vivo with 10 μg/mL of IgG isotype control (gray), 50 μg/mL coated collagen (white), or 10 μg/mL LAIR-1 mAb+coated collagen (red) for G, MAPK activity or (FIG. 4H), mTOR and NF-kB activity. N=2 technical replicates. […] FIGS. 4M and 4N) 4E-BP1 expression as measured by Lumit assay (FIG. 4M) or cleaved caspase-7 as measured by Western blot (FIG. 4N) of cells treated as shown in FIGS. 4I-4K. Mean pixel density normalized to histone-3 for triplicate samples. […] Values normalized to isotype for each respective condition. n=3-4 technical replicates. P values calculated by Student's t test. Error bars represent SEM.

human LAIR-1, sequence (as listed by the source): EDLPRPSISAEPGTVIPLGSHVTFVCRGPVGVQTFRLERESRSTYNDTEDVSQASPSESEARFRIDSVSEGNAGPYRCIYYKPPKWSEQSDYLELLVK

B1: LAIR-1 mAb: humanized agonist anti-LAIR-1 mAb, IgG1 backbone; h11B3 VL-2 (SEQ ID NO: 16), h11B3 VH-3 (SEQ ID NO: 27) (antibody, V domains shown)
VH: EVQLVESGGGLVQPGGSLKLSCAASGFTFNTNAMYWVRQAPGKGLEWVGRIRSKSSNYATYYAASVKGRFTISRDDSKNTLYLQMNSLKTEDTAVYYCVRGGSGFFAYWGQGTLVTVSS
VL: DIQMTQSPSSLSASLGDRVTITCKASEDIYIRLAWYQQKPGKAPRLLISTATSLETGVPSRFSGSGSGTDYTFTISSLQPEDIATYYCQQYWSTPYTFGGGTRLEIK
modifications: IgG1 constant regions; Synthetic: h11B3 VH-3; Synthetic: h11B3 VL-2
Take B1: the “human LAIR-1 signaling (agonist)” value with human LAIR-1 is reported as “capable of inducing human LAIR-1 signaling”. Further, the Tmax in data set [1] was 8 h. The “human CD45 CD33 cells in circulation” value in data set [2] is listed as less than 10%. In addition, the “disease development in secondary recipient mice” value in data set [3] is “developed no disease”. In addition, the “changes in signaling activity” value with healthy CD34+ cells is “minimal changes”. Moreover, the “growth of LAIR-1 Overexpressing cells” value in data set [4] (LAIR-1 mAb alone, vs isotype control) is listed as “only moderately suppressed”. For the same molecule, the proliferation of cells result in data set [4] (anti-IgG crosslinking conditions, after 3 days of culture) was “completely inhibited”. In addition, in data set [4] (crosslinking conditions), the “4E-BP1 (mTORC1 target protein)” value is recorded as “significant suppression” and the “activated caspase-7” value is listed as “substantial increase”.
